Assay results reported in US6740739B1, “Substitutional variants of APO-2 ligand” (Genentech, Inc., priority 1998, dated 2004).

Experiments:
293 = test: Apoptosis by FACS, non-lymphoid tumor cell lines; type: cell-based, human; conditions: Apo-2 ligand 3 μg/ml, 24 hours, control 12.3
Experimental: (§1) The effects of the Apo-2 ligand on the 9D cells, as well as on Raji cells (human Burkitt's lymphoma B cell line, ATCC CCL 86) and Jurkat cells (human acute T cell leukemia cell line, ATCC TIB 152) were further analyzed by FACS. The FACS analysis was conducted, using established criteria for apoptotic cell death, namely, the relation of fluorescence staining of the cells with two markers: (a) propidium iodide (“PI”) dye, which stains apoptotic but not live cells, and (b) a fluorescent derivative of the protein, annexin V, which binds to the exposed phosphatidylserine found on the surface of apoptotic cells, but not on live cells [Darzynkiewicz et al., Methods in Cell Biol., 41:15-38 (1994); Fadok et al., J. Immunol., 148:2207-2216 (1992); Koopman et al., Blood, 84:1415-1420 (1994)].
(§2) The 9D cells (FIG. 2B), Raji cells (FIG. 2C), and Jurkat cells (FIG. 2D) were incubated (1×10^6 cells/well) for 24 hours with a media control (left panels), Apo-2 ligand (3 μg/ml, prepared as described in Example 3) (center panels), or anti-Apo-1 ligand antibody, CH11 (1 μg/ml) (right panels). The cells were then washed, stained with PI and with fluorescein thiocyanate (FITC)-conjugatedannexin V (purchased from Brand Applications) and analyzed by flow cytometry. Cells negative for both PI and annexin V staining (quadrant 3) represent live cells; PI-negative, annexin V-positive staining cells (quadrant 4) represent early apoptotic cells; PI-positive, annexin V-positive staining cells (quadrant 2) represent primarily cells in late stages of apoptosis.
(§3) The effect of Apo-2 ligand on human non-lymphoid tumor cell lines was examined using the following cell lines: HeLa (derived from human cervical carcinoma, ATCC CCL 22); ME-180 (derived from human cervical carcinoma, ATCC HTB 33); MCF7 (derived from human breast carcinoma, ATCC HTB 22); U-937 (derived from human hystiocytic lymphoma, ATCC CRL 1593); A549 (derived from human lung carcinoma, ATCC CCL 185); and 293 (derived from an adenovirus-transformed human embryonic kidney cells, ATCC CCL 1573).
(§4) In the assay, 1×10^6 cells of each cell line were incubated for 24 hours with a media control, Apo-2 ligand (3 μg/ml, prepared as described in Example 3), or anti-Apo-1 monoclonal antibody, CH 11 (1 μg/m1). Following the incubation, apoptosis was measured by FACS analysis, as described in Example 4.

ME-180 = test: Apoptosis by FACS, non-lymphoid tumor cell lines; type: cell-based, human; conditions: Apo-2 ligand 3 μg/ml, 24 hours, control 8.6
Experimental: as §1, §2, §3, §4

MCF7 = test: Apoptosis by FACS, non-lymphoid tumor cell lines; type: cell-based, human; conditions: Apo-2 ligand 3 μg/ml, 24 hours, control 39.9
Experimental: as §1, §2, §3, §4

HeLa = test: Apoptosis by FACS, non-lymphoid tumor cell lines; type: cell-based, human; conditions: Apo-2 ligand 3 μg/ml, 24 hours, control 5.3
Experimental: as §1, §2, §3, §4

U-937 = test: Apoptosis by FACS, non-lymphoid tumor cell lines; type: cell-based, human; conditions: Apo-2 ligand 3 μg/ml, 24 hours, control 3.6
Experimental: as §1, §2, §3, §4

A549 [1] = test: Apoptosis by FACS, non-lymphoid tumor cell lines; type: cell-based, human; conditions: Apo-2 ligand 3 μg/ml, 24 hours, control 16.5
Experimental: as §1, §2, §3, §4

MDA231 = type: cell-based, human
Experimental: (§5) The following human tumor cell lines were assayed: A549 (lung carcinoma, ATCC CCL 185); HCT116 (colon carcinoma, ATCC CCL 247); SW480 (colon adenocarcinoma, ATCC CCL 228); MDA231 (breast adenocarcinoma, ATCC HTB 26); HeLa (cervical carcinoma, ATCC CCL 22); ME-180 (cervical carcinoma, ATCC HTB 33); T24 (bladder carcinoma. ATCC HTB 4); SK-N-AS (neuroblastoma, White et al., Proc. Natl. Acad. Sci., 92:5520-5524 (1995)). The cells were plated at 2.5×10^5 cells/ml in 96 well plates and incubated overnight. The cells were cultured in the presence of 2-fold dilutions of Apo-2 ligand (ranging from 100 ng/ml to 0.01 ng/ml). In some of the cultures, a chemotherapeuticagent was also added for 24 hours-cyclohexamide (“CHX”) (50 μg/ml; Sigma Chemicals), Doxorubicin (10-100 μg/ml; Pharmacia), or 5-FU (6 mg/ml; Roche). After 24 hours of incubation, the cells were stained with 0.5% crystal-violetin 20% methanol. Cell viability was determined by eluting the dye from the stained cells with 0.1M sodium citrate (0.1M citric acid in 50% methanol), and measuring absorbance at 540 nm.

A549 [2] = type: cell-based, human
Experimental: as §5

HCT116 = type: cell-based, human
Experimental: as §5

SW480 = type: cell-based, human
Experimental: as §5

[3] = Examination of infused animals for gross toxicity; type: in vivo, nude mice; conditions: E. coli-expressed Apo-2 ligand 10 mg/kg each day by mini-pump; Day 3
Experimental: In the experiment, the nude mice were injected subcutaneously with HCT116 human colon carcinoma cells (ATCC CCL 247) (1×10^6 cells) on each side of the animal. The tumors were then allowed to grow to reach approximately 1 cm diameter (approximately 10 days). On Day 0, the tumor volume was measured with calipers. Volume was calculated as π/6×ab^2, where a=length and b=width. Then osmotic mini-pumps (available from Alza Corp., Model 1003) were implanted intraperitoncally into each animal. The mini-pumps were loaded with either (1) control vehicle (20 mM Tris pH 7.5, 8% Trehalose. 0.01% Tween-20) or (2) Apo-2 ligand. Five animals in each group received either the control vehicle or Apo-2 ligand. The mini-pumps were calibrated to deliver each day 10 mg/kg Apo-2 ligand (10 mg/ml×2 μl/hour) or 2 μl/hour control vehicle.
On Day 3, the tumor volume was again measured, and the animals were sacrificed. […] There was no change in tumor volume in the vehicle group, but a marked reduction in tumor size occurred in mice infused with the Apo-2L. The treatment with the Apo-2L shrunk the tumors by about 50% over 3 days.

B1: Apo-2L: purified soluble His10-tagged human Apo-2 ligand, residues 114-281, from baculovirus-infected Sf9 cells (Example 3); used in Examples 4-14 (protein)
chain: MGHHHHHHHHHHSSGHIDDDDKHMVRERGPQRVAAHITGTRGRSNTLSSPNSKNEKALGRKINSWESSRSGHSFLSNLHLRNGELVIHEKGFYYIYSQTYFRFQEEIKENTKNDKQMVQYIYKYTSYPDPILLMKSARNSCWSKDAEYGLYSIYQGGIFELKENDRIFVSVTNEHLIDMDHEASFFGAFLVG
Question: Which “% apoptotic cells” value 293 does the source give for B1 here?
Answer: The value was 12.2%.

Question: And the “% apoptotic cells” value (ME-180)?
Answer: The value was 80.7%.

Question: And the “% apoptotic cells” value (MCF7)?
Answer: Its value is 47.3%.

Question: And the “% apoptotic cells” value (HeLa)?
Answer: Its value is 18.6%.

Question: What about the “% apoptotic cells” value (U-937) of the same molecule?
Answer: The value was 62.3%.

Question: What about the “% apoptotic cells” value (A549 [1]) of the same molecule?
Answer: The value was 74.6%.

Question: And the “Apo-2L sensitivity ENHANCED BY 5-FU” value (MDA231)?
Answer: Its value is “yes”.

Question: And the “Apo-2L sensitivity ENHANCED BY Dox” value (MDA231; MDA231, Doxorubicin 10-100 μg/ml, 24 hours)?
Answer: Its value is “yes”.

Question: What about the “Apo-2L sensitivity ENHANCED BY CHX” value (MDA231; MDA231, cyclohexamide 50 μg/ml, 24 hours) of the same molecule?
Answer: The value was “yes”.

Question: And the “Apo-2L SENSITIVITY” value (MDA231; MDA231 breast carcinoma, p53 mut, 24 h)?
Answer: Its value is “++ (>70% death after 24 h with 100 ng/ml Apo-2L)”.

Question: What about the “Apo-2L sensitivity ENHANCED BY 5-FU” value (A549 [2]) of the same molecule?
Answer: Its value is “yes”.

Question: What about the “Apo-2L sensitivity ENHANCED BY Dox” value (A549 [2]; A549, Doxorubicin 10-100 μg/ml, 24 hours) of the same molecule?
Answer: The value was “yes”.

Question: What about the “Apo-2L sensitivity ENHANCED BY CHX” value (A549 [2]; A549, cyclohexamide 50 μg/ml, 24 hours) of the same molecule?
Answer: The value was “yes”.

Question: What about the “Apo-2L SENSITIVITY” value (A549 [2]; A549 lung carcinoma, p53 WT, 24 h) of the same molecule?
Answer: The value was “++ (>70% death after 24 h with 100 ng/ml Apo-2L)”.

Question: What about the “Apo-2L sensitivity ENHANCED BY 5-FU” value (HCT116) of the same molecule?
Answer: Its value is “yes”.

Question: What about the “Apo-2L sensitivity ENHANCED BY Dox” value (HCT116; HCT116, Doxorubicin 10-100 μg/ml, 24 hours) of the same molecule?
Answer: The value was “yes”.

Question: What about the “Apo-2L sensitivity ENHANCED BY CHX” value (HCT116; HCT116, cyclohexamide 50 μg/ml, 24 hours) of the same molecule?
Answer: Its value is “yes”.

Question: What about the “Apo-2L SENSITIVITY” value (HCT116; HCT116 colon carcinoma, p53 mut, 24 h) of the same molecule?
Answer: Its value is “++ (>70% death after 24 h with 100 ng/ml Apo-2L)”.

Question: What about the “Apo-2L sensitivity ENHANCED BY 5-FU” value (SW480) of the same molecule?
Answer: The value was “yes”.

Question: What about the “Apo-2L sensitivity ENHANCED BY Dox” value (SW480; SW480, Doxorubicin 10-100 μg/ml, 24 hours) of the same molecule?
Answer: Its value is “yes”.

Question: And the “Apo-2L sensitivity ENHANCED BY CHX” value (SW480; SW480, cyclohexamide 50 μg/ml, 24 hours)?
Answer: The value was “yes”.

Question: What about the “Apo-2L SENSITIVITY” value (SW480; SW480 colon carcinoma, p53 mut, 24 h) of the same molecule?
Answer: Its value is “++ (>70% death after 24 h with 100 ng/ml Apo-2L)”.

Question: What about the “gross evidence of toxicity” value [3] of the same molecule?
Answer: The value was “did not reveal any gross evidence of toxicity”.
